Non-standard residues stand in square brackets, D forms with d. Primed or numbered codes have the meaning given here. No end group written: not given here. *: point of attachment. DCHA″ = 3,5-dichloro-4-hydroxyaniline residue, Oc1c(Cl)cc(N*)cc1Cl; Phe(4-Cl) = N[C@@H](Cc1ccc(Cl)cc1)C(=O)O; Phe(4-I) = N[C@@H](Cc1ccc(I)cc1)C(=O)O; 2Nal = N[C@@H](Cc1ccc2ccccc2c1)C(=O)O; pNA = O=[N+]([O-])c1ccc(N*)cc1; NH(3-MeOPh) = COc1cccc(N*)c1; Nva = CCC[C@H](N)C(=O)O; Sar = CNCC(=O)O

Assay [1] concerns the target human pepsin I (Homo sapiens, UniProt P0DJD7). The experiment in a line: Digesting of the peptide substrate by human pepsin I (assay by HPLC). It counts as biochemical. The note with it: peptide 0.5 mM, tartaric acid or glycine buffer pH2.0, 37° C., released amino acid derivative (II-A) by HPLC. On the procedure: (§1) Tartaric acid buffer or glycine buffer (pH2.0) containing each peptide (0.5 mM) prepared in Examples 1 and 2(3) etc. (Examples in Table 3 described hereinafter).
(§2) An aqueous solution of human pepsin I or human pepsin II (0.01 mg/ml)
(§3) Enzyme solution I (0.1 ml) was added to Reagent (1.0 ml). After incubation of the mixture at 37° C. for 10, 30, 60 minutes, the mixture solution (0.3 ml) was collected. To the collected solution, 2N-NaOH (0.025 ml) was added to terminate the reaction. After addition of 2N-HCl (0.025 ml) to the mixture, protein was removed by the ultrafiltration. The assaying the amino acid derivatives of the formula (II-A) [drawing 19]
(§4) which was released after digesting by human pepsin in the obtained solution was carried out by HPLC using C18 column. The ratio of digesting rate of pepsin II/pepsin I was calculated according to the result from assay by HPLC. Such assay is carried out to confirm that a substrate was digested by pepsin I or pepsin II correctly and that the amino acid derivatives of the formula (II-A) were released.

Assay [2] concerns the target T1, human pepsin II (Homo sapiens, UniProt P20142).
T1 sequence (P20142 60-388): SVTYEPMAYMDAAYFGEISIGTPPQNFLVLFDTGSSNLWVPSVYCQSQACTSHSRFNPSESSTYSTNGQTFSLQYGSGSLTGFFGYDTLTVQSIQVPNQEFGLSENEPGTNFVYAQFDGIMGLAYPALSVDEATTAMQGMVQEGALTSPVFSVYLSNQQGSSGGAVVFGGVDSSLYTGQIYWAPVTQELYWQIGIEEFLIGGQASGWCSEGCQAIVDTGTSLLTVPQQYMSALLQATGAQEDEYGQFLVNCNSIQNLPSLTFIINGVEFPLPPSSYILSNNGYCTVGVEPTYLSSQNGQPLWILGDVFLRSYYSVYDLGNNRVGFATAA
Description: Digesting of the peptide substrate by human pepsin II (assay by HPLC). It counts as biochemical. To be noted: for ration of digesting rate (pepsin II/ pepsin I): calculated from the HPLC digesting rates, pepsin II over pepsin I; for pepsin II digesting rate: peptide 0.5 mM, tartaric acid or glycine buffer pH2.0, 37° C., released amino acid derivative (II-A) by HPLC. As for the experimental part:
as §1, §2, §3, §4

Sequence of human pepsin I (P0DJD7 63-388): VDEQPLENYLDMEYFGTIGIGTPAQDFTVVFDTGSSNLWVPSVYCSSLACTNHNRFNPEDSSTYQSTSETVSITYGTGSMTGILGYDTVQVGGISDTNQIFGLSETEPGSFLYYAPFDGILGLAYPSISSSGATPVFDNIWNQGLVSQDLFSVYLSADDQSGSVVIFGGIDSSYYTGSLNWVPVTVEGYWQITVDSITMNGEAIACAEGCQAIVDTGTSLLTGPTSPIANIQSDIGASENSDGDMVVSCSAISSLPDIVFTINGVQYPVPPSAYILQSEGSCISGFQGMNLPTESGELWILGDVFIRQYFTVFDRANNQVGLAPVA

For the substance “2(57): Q=Thr Leu Ser Glu; 2-Naphthyl; R4=Me; (EE)m single bond; Z=p-NA (TLSE[2Nal]A-pNA; also: TFMSA salt)”, in assay [1], the “pepsin I digesting rate” value was 0.0284 μM/min · 1 μg Enz. In assay [2], the “ration of digesting rate (pepsin II/ pepsin I)” value (“ration of digesting rate” for short) was 660.9 and the “pepsin II digesting rate” value amounted to 18.78 μM/min · 1 μg Enz.
For “2(3): Q=Pro Gln Gln Ala; 4-I-Phenyl; R4=H; (EE)m single bond; Z=p-NA (PQQA[Phe(4-I)]G-pNA; also: TFA salt)”, in that order: 0.0020 μM/min · 1 μg Enz, 2065.1 and 4.23 μM/min · 1 μg Enz.
For “2(45): Q=Pro Thr Ser Glu; 2-Naphthyl; R4=Me; (EE)m single bond; Z=p-NA (PTSE[2Nal]A-pNA; also: TFMSA salt)”, in that order: 0.2512 μM/min · 1 μg Enz, 161.4 and 40.55 μM/min · 1 μg Enz.
For “2(61): Q=Ac Lys Asn Leu Ser Glu; 2-Naphthyl; R4=Me; (EE)m single bond; Z=p-NA (Ac-KNLSE[2Nal]A-pNA; also: TFMSA salt)”, in that order: 0.1681 μM/min · 1 μg Enz, 219.0 and 36.81 μM/min · 1 μg Enz.
As for “2(18): Q=Ala Pro Gln Gln Ala; 4-I-Phenyl; R4=Me; (EE)m single bond; Z=p-NA (APQQA[Phe(4-I)]A-pNA; also: TFA salt)”, in assay [1], the “pepsin I digesting rate” value was 0.0122 μM/min · 1 μg Enz. For the same substance, in assay [2], the “ration of digesting rate” value was 757.0 and the “pepsin II digesting rate” value came to 9.20 μM/min · 1 μg Enz.
Regarding “2(16): Q=Asn Pro Gln Gln Ala; 4-I-Phenyl; R4=Me; (EE)m single bond; Z=p-NA (NPQQA[Phe(4-I)]A-pNA; also: TFA salt)”, the “pepsin I digesting rate” value in assay [1] stood at 0.0082 μM/min · 1 μg Enz. In assay [2], the “ration of digesting rate” value is 1094.8 and the “pepsin II digesting rate” value amounted to 8.95 μM/min · 1 μg Enz.
For “2(25): Q=Pro Gln Gln Met; 2-Naphthyl; R4=Me; (EE)m single bond; Z=p-NA (PQQM[2Nal]A-pNA; also: TFA salt)”, in that order: 0.0063 μM/min · 1 μg Enz, 889.7 and 5.56 μM/min · 1 μg Enz.
On to “2(51): Q=Gly Leu Ser Glu; 2-Naphthyl; R4=Me; (EE)m single bond; Z=p-NA (GLSE[2Nal]A-pNA; also: TFMSA salt)”, for which the “pepsin I digesting rate” value in assay [1] is recorded as 0.1631 μM/min · 1 μg Enz. In assay [2], the “ration of digesting rate” value was 333.8 and the “pepsin II digesting rate” value came out at 54.43 μM/min · 1 μg Enz.
For “2(7): Q=Pro Gln Gln Ala; 4-Cl-Phenyl; R4=Me; (EE)m single bond; Z=p-NA (PQQA[Phe(4-Cl)]A-pNA; also: TFA salt)”, in that order: 0.0335 μM/min · 1 μg Enz, 104.4 and 3.50 μM/min · 1 μg Enz.
For “2(78): Q=Leu Ser Glu; 2-Naphthyl; R4=Me; (EE)m=Leu; Z=p-NA (LSE[2Nal]AL-pNA; also: TFMSA salt)”, in that order: 2.6240 μM/min · 1 μg Enz, 20.74 and 54.41 μM/min · 1 μg Enz.
For “2(83): Q=Sar Leu Ser Glu; 2-Naphthyl; R4=Me; (EE)m=Ala; Z=m-ASD ([Sar]LSE[2Nal]AA-{NH(3-MeOPh)}; also: TFMSA salt)”, in that order: 2.3660 μM/min · 1 μg Enz, 29.87 and 70.66 μM/min · 1 μg Enz.
Take “Nα-Me-GlySerGlyAla(2-Naph)AlaAla-DCHA.TFMSA ([Sar]SG[2Nal]AA-{DCHA″}; also: TFMSA salt) [Example 2(84)]”: the “pepsin I digesting rate” value in assay [1] stood at 0.2767 μM/min · 1 μg Enz. For the same substance, in assay [2], the “ration of digesting rate” value was 119.5 and the “pepsin II digesting rate” value was found to be 33.07 μM/min · 1 μg Enz.
For the substance “2(54): Q=Lys Leu Ser Glu; 2-Naphthyl; R4=Me; (EE)m single bond; Z=p-NA (KLSE[2Nal]A-pNA; also: TFMSA salt)”, the “pepsin I digesting rate” value in assay [1] amounted to 0.2739 μM/min · 1 μg Enz. In addition, in assay [2], the “ration of digesting rate” value is 176.7 and the “pepsin II digesting rate” value is recorded as 48.39 μM/min · 1 μg Enz.
For “ProLeuSerGluAla(2-Naph)Ala-pNA (PLSE[2Nal]A-pNA) [Example 1]”, in that order: 0.2795 μM/min · 1 μg Enz, 198.2 and 55.40 μM/min · 1 μg Enz.
For “2(14): Q=Ac Lys Pro Gln Gln Ala; 4-I-Phenyl; R4=Me; (EE)m single bond; Z=p-NA (Ac-KPQQA[Phe(4-I)]A-pNA; also: TFA salt)”, in that order: 0.0094 μM/min · 1 μg Enz, 410.2 and 3.85 μM/min · 1 μg Enz.
As for “2(11): Q=Pro Gln Gln Ala; 2-Naphthyl; R4=n-Pr; (EE)m single bond; Z=p-NA (PQQA[2Nal][Nva]-pNA; also: TFA salt)”, the “pepsin I digesting rate” value in assay [1] was determined as 0.0235 μM/min · 1 μg Enz. Besides, in assay [2], the “ration of digesting rate” value is recorded as 174.9 and the “pepsin II digesting rate” value came to 4.10 μM/min · 1 μg Enz.
For “2(34): Q=Pro Gln Asp Glu; 2-Naphthyl; R4=Me; (EE)m single bond; Z=p-NA (PQDE[2Nal]A-pNA; also: TFMSA salt)”, in that order: 0.0216 μM/min · 1 μg Enz, 711.9 and 15.40 μM/min · 1 μg Enz.
For “2(63): Q=Pro Asn Asn Leu Ser Glu; 2-Naphthyl; R4=Me; (EE)m single bond; Z=p-NA (PNNLSE[2Nal]A-pNA; also: TFMSA salt)”, in that order: 0.1763 μM/min · 1 μg Enz, 169.2 and 29.84 μM/min · 1 μg Enz.
For “2(80): Q=Leu Ser Glu; 2-Naphthyl; R4=Me; (EE)m=Gly; Z=p-NA (LSE[2Nal]AG-pNA; also: TFMSA salt)”, in that order: 0.1500 μM/min · 1 μg Enz, 105.48 and 15.77 μM/min · 1 μg Enz.
For “2(33): Q=Pro Gln Glu Glu; 2-Naphthyl; R4=Me; (EE)m single bond; Z=p-NA (PQEE[2Nal]A-pNA; also: TFMSA salt)”, the “pepsin I digesting rate” value in assay [1] amounted to 0.0632 μM/min · 1 μg Enz. For the same substance, in assay [2], the “ration of digesting rate” value is reported as 402.3 and the “pepsin II digesting rate” value came to 25.41 μM/min · 1 μg Enz.
For “Nα-Me-GlyLeuSerGluAla(2-Naph)Ala-pNA.TFMSA ([Sar]LSE[2Nal]A-pNA; also: TFMSA salt) [Example 2(70)]”, in that order: 0.3128 μM/min · 1 μg Enz, 158.4 and 49.56 μM/min · 1 μg Enz.
